± gives the uncertainty stated by the source.

The first data set is described as follows: amyloid nucleation score (Sup35N fusion, yeast selection) (log enrichment); library NNK1; higher = more nucleation; inactive = no reads after selection. The method, boiled down:
(§1)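 Nucleation score is defined as the DiMSum log enrichment of output over input reads, with centring on the mode score of non-aggregating sequences. A minimum of 100 input reads was required for each sequence. Reads came from Illumina sequencing of plasmid inserts from psi-negative yeast expressing Sup35N fused to peptides of 20 random codons, induced with 100 μM copper sulfate for 24 hours and grown 7 days at 30°C on medium lacking adenine and uracil.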
On to AKLDWHIRTAEWGLPKLLLT, for which the amyloid nucleation score entry is “inactive”. The sequence YYSHIIQAGCWVVYRDVRLF yielded an amyloid nucleation score of 0.52 ± 0.88. Turning to YYSLAVLTSLRARKSTVFND, the amyloid nucleation score is -1.16 ± 0.78.

On to YYTNWQEGYRVGRFRCDGHN, for which the amyloid nucleation score result was “inactive”. In the case of YYYEPLFPRELHSQLYLL, the amyloid nucleation score is -0.268 ± 0.8.

Another data set is described as follows: amyloid nucleation score (Sup35N fusion, yeast selection) (log enrichment); library NNK2; higher = more nucleation; inactive = no reads after selection. A digest of the protocol:
as §1
AKLDWHIRTAEWGLPKLLLT: the amyloid nucleation score was -0.467 ± 0.54.
